Substitutions are numbered along the chain they refer to.
T1: cynomolgus Nectin-4 protein expressed on CHO cells (cynomolgus, UniProt Q96NY8 32-510 (human entry))
T1 construct: also called Cyno Nectin-4 V5
T1 chain: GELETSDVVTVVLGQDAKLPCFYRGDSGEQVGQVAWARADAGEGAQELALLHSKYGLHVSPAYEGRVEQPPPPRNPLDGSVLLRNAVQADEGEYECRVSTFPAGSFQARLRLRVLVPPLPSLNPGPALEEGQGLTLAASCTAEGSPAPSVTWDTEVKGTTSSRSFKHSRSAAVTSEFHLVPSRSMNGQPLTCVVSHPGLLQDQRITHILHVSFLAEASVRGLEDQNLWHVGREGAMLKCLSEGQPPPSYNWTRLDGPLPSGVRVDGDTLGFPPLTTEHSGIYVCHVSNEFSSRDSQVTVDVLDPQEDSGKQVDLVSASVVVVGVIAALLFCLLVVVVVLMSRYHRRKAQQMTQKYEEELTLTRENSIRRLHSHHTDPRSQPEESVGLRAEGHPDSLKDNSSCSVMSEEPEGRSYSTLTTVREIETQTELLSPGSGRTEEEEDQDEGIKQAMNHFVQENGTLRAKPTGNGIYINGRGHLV

T2: human Nectin-4 Mutant 8 (T190A/T191Q/S193A) (Homo sapiens, UniProt Q96NY8, S193A/T190A/T191Q)
T2 construct: expressed in transfected cells; host or cells: HEK293T
T2 sequence (Q96NY8 32-510 T190A/T191Q/S193A): T1 chain with A39V, T159A, T160Q, S162A, V230I, T437A

T3: human Nectin-4 (Homo sapiens, UniProt Q96NY8)
T3 sequence (Q96NY8 32-510): T1 chain with A39V, V230I, T437A

B1: chimeric parental 5E7 antibody (antibody, V domains shown)
VH: QVQLQQPGAELVKPGASVKLSCKASGYIFTSYWMHWVKQRPGQGLEWIGEIDPSDSYTNYNQKFKGKATLTLDKSSSTTYMQLSSLTSEDSAVYYCVRGYGNYGDYWGQGTTLTVSS
VL: DVVMTQAAFSNPVTLGTSASISCRSSKSLLHSNGITYLYWYLQKPGQSPQLLIYQMSNLASGVPDRFSSSGSGTDFTLRISRVEAEDVGVYYCAQNLELPWTFGGGTKLEIKR
notes: Chimeric antibody, murine variable domains with human constant regions; also called ch5E7; CHG1-M-1N4-5E7
B2: N41 (antibody, V domains shown)
VH: QVQLKQSGPGLVQPSQSLSITCTVSGFSLTNYGVHWVRQSPGKGLEWLGVIWSGGSTDYNAAFISRLSISKDTSKSQVFFKMNSLQADDTAIYYCARELIHAMDNWGQGTSVTVSS
VL: DIQMTQSPASLSVSVGETVTITCRASENIYSNLAWYQQKQGNSPQLLVFAATNLADGVPSRFSGSGSGTQYSLKINSLQSEDFGTYYCQHFWGTPTFGGGTKLEIK
B3: 5E7 (antibody, V domains shown)
VH: QVQLQQPGAELVKPGASVKLSCKASGYIFTSYWMHWVKQRPGQGLEWIGEIDPSDSYTNYNQKFKGKATLTLDKSSSTTYMQLSSLTSEDSAVYYCVRGYGNYGDYWGQGTTLTVSSASTKGP
VL: DVVMTQAAFSNPVTLGTSASISCRSSKSLLHSNGITYLYWYLQKPGQSPQLLIYQMSNLASGVPDRFSSSGSGTDFTLRISRVEAEDVGVYYCAQNLELPWTFGGGTKLEIKRTVAAP

Key:
[1] = biological target: human Nectin-4 (protein used in the SPR affinity measurements) (human) (UniProt Q96NY8); experiment: SPR
[2] = biological target: T1, cynomolgus Nectin-4 protein expressed …; experiment: flow cytometry on CHO cells expressing cynomolgus Nectin-4, Median MFI (PE)
Description: (§1) Anti-Nectin-4 antibodies were tested by flow cytometry for binding to different CHO cell lines made to express respectively the mouse, cynomolgus and rat Nectin-4 protein (including an N-terminal V5 tag not shown in the sequences below).

[3] = biological target: T2, human Nectin-4 Mutant 8 (T190A/T191Q/S193A); experiment: Epitope mapping using Nectin-4 point mutants; type: binding
[4] = biological target: T3, human Nectin-4; experiment: Species cross-reactivity, binding to Nectin-4
Description: as §1
Antibody 5E7 bound human, cynomolgus, as well as rat Nectin 4 proteins but lack binding to the mouse Nectin 4 protein. FIGS. 6A and 6B show binding of anti-Nectin-4 antibodies on rat and cynomolgus Nectin-4-expressing CHO cell lines.

Row | Molecule | Kd [1] [nM] | koff [1] [s⁻¹] | kon [1] [M⁻¹ s⁻¹] | EC50 (read off the curve) [2] [µg/mL] | association with Mutant 8 [3] | binding to human Nectin 4 protein [4]
1 | B1 | 5.9 | 0.0027 | 480000 | ~0.03 | – | –
2 | B2 | – | – | – | – | + | –
3 | B3 | – | – | – | – | + | bound
